{"source": "patent US20160002338A1", "about": "(Hoffmann-La Roche, published 2016)", "binders": {"B1": {"name": "humanized variant VH-A/VL-D of anti-HER3 antibody M-05-74 (antibody, V domains shown)", "VH": "QVQLVQSGAELKKPGASVKVSCRTSGYTLTDYWIHWVRQAPGQGLEWMGYINPYTGYTESNQKFKDRVAMTRDASINTAYMELTSLRSDDTAVYYCARPYYYGDYWGQGTLVTVSS", "VL": "EIVLTQSPATLSLSPGERATLSCSASSSVSYMHWFQQKPGQPPRLLIYSTSNLASGIPARFSGSGSGTDFTLTISSLEPEDFAVYYCQQRSSYPFTFGGGTKVEIK", "notes": "also called humanized DIB-74"}, "B2": {"name": "anti-HER3 antibody M-08-11 (antibody, V domains shown)", "VH": "QAYLQQSGAELMRPGASVRMSCQASGYTFTSYTIHWLKQTPRQGLEWIGAIYPRNGDFSYNQKFKDKASLTVDTSSSTAYMHLSSLTSEDSAVYFCARTINYGDWFAYWGQGTLVTVSA", "VL": "DIQMIQSPASLFVSEGETVIITCRASENIYSNLAWYHQKKGKSPQVLVYAAIKLADGVPLRFSGSGSGTQFSLKINSLQSEDFGSYYCQHFWGPPYTFGSGTNLEIK", "notes": "also called M-011; <Her3> M-08-11"}, "B3": {"name": "M-05-74-Fab-Pseudomonas exotoxin conjugate (M-05-74-PE) (other)", "light": "QIVLTQSPAIMSASPGERVTITCSASSSVSYMHWFQQKPGTSPKLLIYSTSNLASGVPARFSGSGSGTSYSLTISRMEAEDAATYYCQQRSSYPFTFGSGTKLEIKRTVAAPSVFIFPPSDEQLKSGTASVVCLLNNFYPREAKVQWKVDNALQSGNSQESVTEQDSKDSTYSLSSTLTLSKADYEKHKVYACEVTHQGLSSPVTKSFNRGEC", "heavy": "QVQLQQSGAELAKPGASVKMSCKTSGYTLTDYWIHWVKQRPGQGLEWIGYINPYTGYTESNQKFKDKATLTADKSSNTAYIQLSSLTSEDSAVYYCARPYYYGDYWGQGTTLTVSSASTKGPSVFPLAPSSKSTSGGTAALGCLVKDYFPEPVTVSWNSGALTSGVHTFPAVLQSSGLYSLSSVVTVPSSSLGTQTYICNVNHKPSNTKVDKKVEPKSCGGGSLPETGGGRHRQPRGWEQLYPTGAEFLGDGGAVSFSTRGTQNWTVERLLQAHRQLEEGGYVFVGYHGTFLEAAQSIVFGGVRARSQDLDAIWAGFYIAGDPALAYGYAQDQEPDAAGRIRNGALLRVYVPRSSLPGFYATSLTLAAPEAAGEVERLIGHPLPLRLDAITGPEESGGRLETILGWPLAERTVVIPSAIPTDPRNVGGDLDPSSIPDSEAAISALPDYASQPGKPPREDL"}}, "key": {"[1]": {"biological_target": "T1, human recombinant HER3 ECD (human, UniProt P21860 20-643)", "T1 construct": "68 kDa; also called human-Her3-ECD; full length Her3 ECD", "assay": "SPR Biacore 3000, 37 C"}, "HER3 ECD-HRG complex": {"biological_target": "T2, HER3 ECD-HRG complex (human, UniProt P21860 20-643)", "T2 construct": "also called Heregulin/Her-3 ECD", "assay": "SPR Biacore 3000, 37 C"}, "HER4 ECD-HRG complex": {"biological_target": "T3, HER4 ECD-HRG complex (human, UniProt Q15303 26-651)", "T3 construct": "HER4 ECD preincubated with a 5-fold molar excess of Heregulin; also called HER-4-ECD-RG", "T3 sequence 1": "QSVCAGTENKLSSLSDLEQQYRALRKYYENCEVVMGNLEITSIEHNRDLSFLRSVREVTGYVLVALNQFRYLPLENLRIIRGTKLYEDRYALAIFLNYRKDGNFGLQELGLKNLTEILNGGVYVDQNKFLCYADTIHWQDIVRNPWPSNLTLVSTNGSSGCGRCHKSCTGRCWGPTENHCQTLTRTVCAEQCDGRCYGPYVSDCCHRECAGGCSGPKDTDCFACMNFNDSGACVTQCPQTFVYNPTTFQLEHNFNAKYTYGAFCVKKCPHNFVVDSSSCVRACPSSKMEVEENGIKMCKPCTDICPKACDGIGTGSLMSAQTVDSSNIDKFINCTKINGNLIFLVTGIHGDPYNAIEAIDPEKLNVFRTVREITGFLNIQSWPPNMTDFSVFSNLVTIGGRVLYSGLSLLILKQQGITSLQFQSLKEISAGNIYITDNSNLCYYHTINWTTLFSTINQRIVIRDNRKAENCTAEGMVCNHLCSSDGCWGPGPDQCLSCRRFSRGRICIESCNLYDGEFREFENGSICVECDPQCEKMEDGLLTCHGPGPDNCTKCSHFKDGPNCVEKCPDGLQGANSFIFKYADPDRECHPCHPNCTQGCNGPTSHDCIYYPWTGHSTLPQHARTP", "T3 sequence 2": "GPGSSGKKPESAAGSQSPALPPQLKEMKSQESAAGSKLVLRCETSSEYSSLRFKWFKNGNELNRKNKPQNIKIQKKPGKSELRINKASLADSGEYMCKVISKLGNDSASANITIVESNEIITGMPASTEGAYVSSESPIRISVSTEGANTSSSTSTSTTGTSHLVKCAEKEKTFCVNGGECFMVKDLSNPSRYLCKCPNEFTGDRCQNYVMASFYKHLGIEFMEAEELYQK", "assay": "SPR Biacore 3000, 37 C"}, "[2]": {"biological_target": "T4, HER4 ECD peptide hairpin, overlapping 15-mer peptides (human)", "T4 construct": "also called β-hairpin of HER4", "T4 peptide": "PQTFVYNPTTFQLEHNFNA", "assay": "CelluSpots peptide array"}, "[3]": {"biological_target": "human HER3 (full length, on cells) (human, UniProt P21860 20-1342)", "assay": "cell-based or functional assay"}}, "data": [{"binder": "B1", "values": [{"measurement": "Molar Ratio MR", "setting": "[1]", "value": 0.7}, {"measurement": "Molar Ratio MR", "setting": "HER3 ECD-HRG complex", "value": 0.8}, {"measurement": "Molar Ratio MR", "setting": "HER4 ECD-HRG complex", "value": 0.8}]}, {"binder": "B2", "values": [{"measurement": "binding result", "setting": "[2]", "value": "no binding (tested: 1 µg/mL)"}]}, {"binder": "B3", "values": [{"measurement": "EC50 of cell killing of A549 cells, +HRG beta", "setting": "[3]", "value": 0.13, "unit": "µg/mL"}, {"measurement": "EC50 of cell killing of A549 cells, -HRG beta", "setting": "[3]", "value": 1.93, "unit": "µg/mL"}]}]}
